Measurements from PMC6303335 (2018).

Biological target: E194, the type I interferon binding protein (IFNα/βBP) from ectromelia virus (ECTV) Naval strain (Ectromelia virus, strain Naval)
Assay: SPR

B1: mouse IFNα subtype A (ligand)
chain: CDLPHTYNLRNKRALKVLAQMRRLPFLSCLKDRQDFGFPLEKVDNQQIQKAQAIPVLRDLTQQTLNLFTSKASSAAWNATLLDSFCNDLHQQLNDLQTCLMQQVGVQEPPLTQEDALLAVRKYFHRITVYLREKKHSPCAWEVVRAEVWRALSSSVNLLPRLSEEKE
koff: 0.000331 s⁻¹
